Test results from the supplement of paper PMC10567573.

B1: FCHO1 (parent)
chain: DKLALCHLELTRKLQDLIKDVLRY

Variants of: B1
Assay: protein stability index of a GFP-peptide fusion (GPS, HEK-293T) (PSI 1-6); higher = more stable
Details: c terminus: a fixed tail appended
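Also: lentivirally expressed fusions sorted by FACS into six bins by GFP to DsRed ratio, PSI derived from sequencing read proportions per bin multiplied by bin number.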

| Variant | protein stability index |
| --- | --- |
| DKLALCNLELTRKLQDLIKDVLRY [H7N] | 3.01 |
| DKLALCQLELTRKLQDLIKDVLRY [H7Q] | 2.88 |
| DKLALCRLELTRKLQDLIKDVLRY [H7R] | 2.93 |
| DKLALCSLELTRKLQDLIKDVLRY [H7S] | 1.81 |
| DKLALCTLELTRKLQDLIKDVLRY [H7T] | 3.2 |
| DKLALCWLELTRKLQDLIKDVLRY [H7W] | 1.38 |
| DKLALCHDELTRKLQDLIKDVLRY [L8D] | 2.63 |
| DKLALCHFELTRKLQDLIKDVLRY [L8F] | 2.65 |
| DKLALCHGELTRKLQDLIKDVLRY [L8G] | 2.92 |
| DKLALCHHELTRKLQDLIKDVLRY [L8H] | 3.96 |
| DKLALCHIELTRKLQDLIKDVLRY [L8I] | 1.79 |
| DKLALCHKELTRKLQDLIKDVLRY [L8K] | 2.72 |
| DKLALCHNELTRKLQDLIKDVLRY [L8N] | 2.36 |
| DKLALCHWELTRKLQDLIKDVLRY [L8W] | 2 |
| DKLALCHLALTRKLQDLIKDVLRY [E9A] | 2.63 |
| DKLALCHLFLTRKLQDLIKDVLRY [E9F] | 2.62 |
| DKLALCHLGLTRKLQDLIKDVLRY [E9G] | 2.87 |
| DKLALCHLHLTRKLQDLIKDVLRY [E9H] | 2.19 |
| DKLALCHLILTRKLQDLIKDVLRY [E9I] | 2.67 |
| DKLALCHLKLTRKLQDLIKDVLRY [E9K] | 3.04 |
| DKLALCHLLLTRKLQDLIKDVLRY [E9L] | 2.72 |
| DKLALCHLNLTRKLQDLIKDVLRY [E9N] | 5.51 |
| DKLALCHLPLTRKLQDLIKDVLRY [E9P] | 3.31 |
| DKLALCHLQLTRKLQDLIKDVLRY [E9Q] | 3.2 |

| Variant | protein stability index |
| --- | --- |
| DKLALCHLSLTRKLQDLIKDVLRY [E9S] | 1.77 |
| DKLALCHLVLTRKLQDLIKDVLRY [E9V] | 4.2 |
| DKLALCHLWLTRKLQDLIKDVLRY [E9W] | 2.73 |
| DKLALCHLYLTRKLQDLIKDVLRY [E9Y] | 3.21 |
| DKLALCHLEATRKLQDLIKDVLRY [L10A] | 2.75 |
| DKLALCHLECTRKLQDLIKDVLRY [L10C] | 2.22 |
| DKLALCHLEDTRKLQDLIKDVLRY [L10D] | 2.09 |
| DKLALCHLEETRKLQDLIKDVLRY [L10E] | 2.57 |
| DKLALCHLEFTRKLQDLIKDVLRY [L10F] | 3.33 |
| DKLALCHLEGTRKLQDLIKDVLRY [L10G] | 1.86 |
| DKLALCHLEHTRKLQDLIKDVLRY [L10H] | 1.3 |
| DKLALCHLEKTRKLQDLIKDVLRY [L10K] | 1.59 |
| DKLALCHLEMTRKLQDLIKDVLRY [L10M] | 4.05 |
| DKLALCHLENTRKLQDLIKDVLRY [L10N] | 1.21 |
| DKLALCHLEPTRKLQDLIKDVLRY [L10P] | 1.69 |
| DKLALCHLEQTRKLQDLIKDVLRY [L10Q] | 3.04 |
| DKLALCHLERTRKLQDLIKDVLRY [L10R] | 1.51 |
| DKLALCHLESTRKLQDLIKDVLRY [L10S] | 1.93 |
| DKLALCHLETTRKLQDLIKDVLRY [L10T] | 2.14 |
| DKLALCHLEVTRKLQDLIKDVLRY [L10V] | 3 |
| DKLALCHLEYTRKLQDLIKDVLRY [L10Y] | 1.76 |
| DKLALCHLELCRKLQDLIKDVLRY [T11C] | 3.34 |
| DKLALCHLELDRKLQDLIKDVLRY [T11D] | 3.07 |
| DKLALCHLELERKLQDLIKDVLRY [T11E] | 1.27 |

| Variant | protein stability index |
| --- | --- |
| DKLALCHLELFRKLQDLIKDVLRY [T11F] | 3.07 |
| DKLALCHLELIRKLQDLIKDVLRY [T11I] | 1.69 |
| DKLALCHLELMRKLQDLIKDVLRY [T11M] | 2.82 |
| DKLALCHLELNRKLQDLIKDVLRY [T11N] | 1.26 |
| DKLALCHLELPRKLQDLIKDVLRY [T11P] | 1.51 |
| DKLALCHLELQRKLQDLIKDVLRY [T11Q] | 2.8 |
| DKLALCHLELSRKLQDLIKDVLRY [T11S] | 2.25 |
| DKLALCHLELYRKLQDLIKDVLRY [T11Y] | 2.57 |
| DKLALCHLELTAKLQDLIKDVLRY [R12A] | 1.42 |
| DKLALCHLELTCKLQDLIKDVLRY [R12C] | 2.23 |
| DKLALCHLELTDKLQDLIKDVLRY [R12D] | 2.92 |
| DKLALCHLELTEKLQDLIKDVLRY [R12E] | 1.54 |
| DKLALCHLELTGKLQDLIKDVLRY [R12G] | 2.7 |
| DKLALCHLELTHKLQDLIKDVLRY [R12H] | 2.98 |
| DKLALCHLELTIKLQDLIKDVLRY [R12I] | 2.33 |
| DKLALCHLELTMKLQDLIKDVLRY [R12M] | 1.99 |
| DKLALCHLELTNKLQDLIKDVLRY [R12N] | 2.54 |
| DKLALCHLELTPKLQDLIKDVLRY [R12P] | 1.53 |
| DKLALCHLELTQKLQDLIKDVLRY [R12Q] | 2.9 |
| DKLALCHLELTSKLQDLIKDVLRY [R12S] | 2.56 |
| DKLALCHLELTTKLQDLIKDVLRY [R12T] | 1.94 |
| DKLALCHLELTVKLQDLIKDVLRY [R12V] | 1.83 |
| DKLALCHLELTWKLQDLIKDVLRY [R12W] | 2.44 |
| DKLALCHLELTYKLQDLIKDVLRY [R12Y] | 2.6 |

| Variant | protein stability index |
| --- | --- |
| DKLALCHLELTRALQDLIKDVLRY [K13A] | 1.46 |
| DKLALCHLELTRCLQDLIKDVLRY [K13C] | 1.75 |
| DKLALCHLELTRDLQDLIKDVLRY [K13D] | 2.86 |
| DKLALCHLELTRELQDLIKDVLRY [K13E] | 2.19 |
| DKLALCHLELTRGLQDLIKDVLRY [K13G] | 2.47 |
| DKLALCHLELTRILQDLIKDVLRY [K13I] | 1.15 |
| DKLALCHLELTRLLQDLIKDVLRY [K13L] | 1.52 |
| DKLALCHLELTRMLQDLIKDVLRY [K13M] | 2.21 |
| DKLALCHLELTRNLQDLIKDVLRY [K13N] | 1.8 |
| DKLALCHLELTRPLQDLIKDVLRY [K13P] | 2.54 |
| DKLALCHLELTRRLQDLIKDVLRY [K13R] | 2.23 |
| DKLALCHLELTRSLQDLIKDVLRY [K13S] | 1.98 |
| DKLALCHLELTRTLQDLIKDVLRY [K13T] | 3.29 |
| DKLALCHLELTRVLQDLIKDVLRY [K13V] | 3.38 |
| DKLALCHLELTRYLQDLIKDVLRY [K13Y] | 2.74 |
| DKLALCHLELTRKCQDLIKDVLRY [L14C] | 3.78 |
| DKLALCHLELTRKDQDLIKDVLRY [L14D] | 3.23 |
| DKLALCHLELTRKEQDLIKDVLRY [L14E] | 2.3 |
| DKLALCHLELTRKFQDLIKDVLRY [L14F] | 1.12 |
| DKLALCHLELTRKGQDLIKDVLRY [L14G] | 1.53 |
| DKLALCHLELTRKHQDLIKDVLRY [L14H] | 1.88 |
| DKLALCHLELTRKIQDLIKDVLRY [L14I] | 3.06 |
| DKLALCHLELTRKKQDLIKDVLRY [L14K] | 1.95 |
